According to PMC6556580 (The Journal of Biological Chemistry, 2019):
Where a chain is given by its changes, count along the chain named. Numbers in names are those of the source. Where “and” joins values, the source holds several entries; their conditions need not be identical. Equal entries are not always repeated. Where two headings read alike, the source gives them in different places.

Assays:
[1] = molecular target: the molecule itself; experiment: SEC-MALS; samples at 0.5–20 mg/ml in 20 mM Tris pH 8.0, 150 mM KCl, 2 mM DTT; Superdex 200 Increase 10/300 GL; concentration series and enriched species; self-association: dimer and higher oligomers of dimers
[2] = molecular target: the molecule itself; experiment: as above; remark: listed apart in the source
[3] = molecular target: the molecule itself; experiment: dynamic light scattering; 20 °C, samples at 5–20 mg/ml in 20 mM Tris pH 8.0, 150 mM KCl, 2 mM DTT; size distribution by volume

B1: SYCE3 12–88 L15N (domain or fragment, human, UniProt A1L190 12-88, looked up)
chain: DNMNKMLSDLNKDLEKLLEEMEKISVQATWMAYDMVVMRTNPTLAESMRRLEDAFVNCKEEMEKNWQELLHETKQRL
notes: SYCE3, human, amino acids 12–88 with point mutation L15N; source: E. coli BL21(DE3), purified (Ni-NTA, amylose, anion exchange, SEC where appropriate); not shown: His6, N-terminal, cleaved; MBP, N-terminal, cleaved
Q: With B1 as the protein, how does the “stoichiometry N” value [1] read?
A: Its value is 2.

B2: SYCE3 12–88 (domain or fragment, human, UniProt A1L190 12-88, looked up)
chain: B1 chain with N4L
notes: SYCE3, human, amino acids 12–88 (α1 N-terminal tip removed, structural core kept); source: E. coli BL21(DE3), purified (Ni-NTA, amylose, anion exchange, SEC where appropriate); not shown: His6, N-terminal, cleaved; MBP, N-terminal, cleaved
Q: For B2, which “stoichiometry N” value [2] is on record?
A: Its value is 2.

B3: SYCE3 1–88 W41A/Y44A (natural protein, human, UniProt A1L190 1-88, looked up)
chain: MDDADPEERNYDNMLKMLSDLNKDLEKLLEEMEKISVQATAMAADMVVMRTNPTLAESMRRLEDAFVNCKEEMEKNWQELLHETKQRL
notes: SYCE3, human, amino acids 1–88 with W41A and Y44A; also called SYCE3 W41A/Y44A; source: E. coli BL21(DE3), purified (Ni-NTA, amylose, anion exchange, SEC where appropriate); not shown: His6, N-terminal, cleaved; MBP, N-terminal, cleaved
Q: How did the “stoichiometry N” value [1] turn out when B3 was run?
A: Its value is 2 and 4.

B4: SYCE3 1–88 PPP-loop (natural protein, human, UniProt A1L190 1-88, looked up)
chain: B3 chain with A41W, A44Y, M49G, R50G, T51P, N52P
notes: also called SYCE3 PPP-loop; source: E. coli BL21(DE3), purified (Ni-NTA, amylose, anion exchange, SEC where appropriate); not shown: His6, N-terminal, cleaved; MBP, N-terminal, cleaved
Q: With B4 as the protein, how does the “stoichiometry N” value [1] read?
A: Its value is 2.

B5: SYCE3 1–88 P53Q (natural protein, human, UniProt A1L190 1-88, looked up)
chain: B3 chain with A41W, A44Y, P53Q
notes: SYCE3, human, amino acids 1–88 with P53Q; also called SYCE3 P53Q; source: E. coli BL21(DE3), purified (Ni-NTA, amylose, anion exchange, SEC where appropriate); not shown: His6, N-terminal, cleaved; MBP, N-terminal, cleaved
Q: Does B5 bind [1]?
A: Result: binds

B6: MBP-SYCE3 fusion protein (natural protein, human, UniProt A1L190 1-88, looked up)
chain: B3 chain with A41W, A44Y
notes: SYCE3, human; source: E. coli BL21(DE3), purified; not shown: MBP, N-terminal, kept
Q: How did the “stoichiometry N” value [2] turn out when B6 was run?
A: The value was 4 and 6.

B7: SYCE3 1–88 W41E/Y44E (natural protein, human, UniProt A1L190 1-88, looked up)
chain: B3 chain with A41E, A44E
notes: SYCE3, human, amino acids 1–88 with W41E and Y44E; also called SYCE3 W41E/Y44E; source: E. coli BL21(DE3), purified (Ni-NTA, amylose, anion exchange, SEC where appropriate); not shown: His6, N-terminal, cleaved; MBP, N-terminal, cleaved
Q: Which “stoichiometry N” value [1] does the source give for B7 here?
A: Its value is 2.

B8: Human SYCE3 full-length (amino acids 1–88) (natural protein, UniProt A1L190 1-88, looked up)
chain: B3 chain with A41W, A44Y
notes: SYCE3, human, full length, amino acids 1–88 (protein of 88 amino acids); it assembles further with concentration; Tags removed with TEV protease; also called SYCE3 1–88; WT SYCE3; source: E. coli BL21(DE3), purified (Ni-NTA, amylose, anion exchange, SEC where appropriate); not shown: His6, N-terminal, cleaved; MBP, N-terminal, cleaved
Q: How did the “stoichiometry N” value [2] turn out when B8 was run?
A: The value was 24.

B9: SYCE3 9–88 Y11N/L15N (domain or fragment, human, UniProt A1L190 9-88, looked up)
chain: RNNDNMNKMLSDLNKDLEKLLEEMEKISVQATWMAYDMVVMRTNPTLAESMRRLEDAFVNCKEEMEKNWQELLHETKQRL
notes: SYCE3, human, amino acids 9–88 with Y11N and L15N (label of the legend; the text says 'mutation to glutamine'); source: E. coli BL21(DE3), purified (Ni-NTA, amylose, anion exchange, SEC where appropriate); not shown: His6, N-terminal, cleaved; MBP, N-terminal, cleaved
Q: With B9 as the protein, how does the “stoichiometry N” value [2] read?
A: Its value is 2.

B10: SYCE3 9–88 (domain or fragment, human, UniProt A1L190 9-88, looked up)
chain: B9 chain with N3Y, N7L
notes: SYCE3, human, amino acids 9–88 (unstructured N terminus removed); source: E. coli BL21(DE3), purified (Ni-NTA, amylose, anion exchange, SEC where appropriate); not shown: His6, N-terminal, cleaved; MBP, N-terminal, cleaved
Q: Does B10 bind [3]?
A: Result: binds
